Data as given in US20240117061A1.

How the values were obtained:
[1] = molecular target: recombinant cynomolgus monkey BCMA-huFc (cynomolgus monkey; human); test: ELISA, hybridoma supernatant, stock solution, immobilized cynoBCMA-huFc
[2] = molecular target: recombinant cynomolgus monkey BCMA-huFc (cynomolgus monkey; human); test: ELISA, hybridoma supernatant, dilution 1:729, immobilized cynoBCMA-huFc
[3] = molecular target: recombinant cynomolgus monkey BCMA-huFc (cynomolgus monkey; human); test: ELISA, hybridoma supernatant, dilution 1:9, immobilized cynoBCMA-huFc
[4] = molecular target: recombinant cynomolgus monkey BCMA-huFc (cynomolgus monkey; human); test: ELISA, hybridoma supernatant, dilution 1:2187, immobilized cynoBCMA-huFc
[5] = molecular target: recombinant cynomolgus monkey BCMA-huFc (cynomolgus monkey; human); test: ELISA, hybridoma supernatant, dilution 1:243, immobilized cynoBCMA-huFc
[6] = molecular target: recombinant cynomolgus monkey BCMA-huFc (cynomolgus monkey; human); test: ELISA, hybridoma supernatant, dilution 1:81, immobilized cynoBCMA-huFc
[7] = molecular target: recombinant cynomolgus monkey BCMA-huFc (cynomolgus monkey; human); test: ELISA, hybridoma supernatant, dilution, immobilized cynoBCMA-huFc
[8] = molecular target: recombinant cynomolgus monkey BCMA-huFc (cynomolgus monkey; human); test: ELISA, hybridoma supernatant, dilution 1:27, immobilized cynoBCMA-huFc

Sequence of recombinant cynomolgus monkey BCMA-huFc (cynomolgus monkey; human) (chain, as listed by the source limits assumed): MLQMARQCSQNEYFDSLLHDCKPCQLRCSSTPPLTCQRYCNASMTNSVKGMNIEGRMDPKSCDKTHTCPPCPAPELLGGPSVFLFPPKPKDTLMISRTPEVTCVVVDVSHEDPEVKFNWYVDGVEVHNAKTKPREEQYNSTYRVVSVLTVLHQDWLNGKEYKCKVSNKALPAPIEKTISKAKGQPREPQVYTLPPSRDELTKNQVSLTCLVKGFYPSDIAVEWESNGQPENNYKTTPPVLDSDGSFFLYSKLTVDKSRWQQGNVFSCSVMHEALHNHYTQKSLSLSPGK

ELISA result [1]: 0.75
ELISA result [2]: 0.13
ELISA result [3]: 0.18
ELISA result [4]: 0.12
ELISA result [5]: 0.15
ELISA result [6]: 0.14
ELISA result [7]: 0.31
ELISA result [8]: 0.15
B1: mouse monoclonal antibody 202E11H10E3 (antibody, V domains shown)
VH: QVQLQQSDAELVKPGTSVKISCKVSGYTFTDHTIHWMKQRPEQGLEWIGYIYPRNGNTKYNEKFKGKATLTADKSSSTAYMHLNSLTSEDSAVYFCARYDYDGYFDVWGTGTTVTVSS
VL: DVVMTQTPLSLPVSLGDQASISCRSSQSHVHSDGHTYLHWYLQKPGQSPELLIYKVSNRFSGVPDRFSGSGSGTDFTLKISRVEAEDLGVYFCSQNTHFPWTFGGGTKLEIK
